Where two headings read alike, the source gives them in different places.

The target of data set [1] is T1, RPA heterotrimer (RPA1/RPA2/RPA3) (human, UniProt P27694;P15927;P35244 1-616;1-270;1-121). The experiment in a line: bulk FRET.
Data set [2] has as its target T2, hnRNPA1 (human, UniProt P09651 1-372). The data set is described as follows: bulk FRET.
The target of data set [3] is T1, RPA heterotrimer (RPA1/RPA2/RPA3). The experiment in a line: EMSA.
Data set [4] concerns the target T2, hnRNPA1. The experiment in a line: bulk FRET. This is another data set of the same source.
The target in data set [5] is hnRNPA1;RPA-E240K heterotrimer (human;human, UniProt P09651;P27694;P15927;P35244 1-372;1-616;1-270;1-121, |E240K). The experiment in a line: bulk FRET.
Data set [6] concerns the target hnRNPA1;RPA heterotrimer (RPA1/RPA2/RPA3) (human;human, UniProt P09651;P27694;P15927;P35244 1-372;1-616;1-270;1-121, |). The data set is described as follows: bulk FRET.
Data set [7] concerns the target T1, RPA heterotrimer (RPA1/RPA2/RPA3). The data set is described as follows: mass photometry.
In data set [8] the target is RPA-E240K heterotrimer (human, UniProt P27694;P15927;P35244 1-616;1-270;1-121, E240K). The experiment in a line: mass photometry.
Sequence of RPA-E240K heterotrimer (P27694 whole entry E240K, chain 1 of 3): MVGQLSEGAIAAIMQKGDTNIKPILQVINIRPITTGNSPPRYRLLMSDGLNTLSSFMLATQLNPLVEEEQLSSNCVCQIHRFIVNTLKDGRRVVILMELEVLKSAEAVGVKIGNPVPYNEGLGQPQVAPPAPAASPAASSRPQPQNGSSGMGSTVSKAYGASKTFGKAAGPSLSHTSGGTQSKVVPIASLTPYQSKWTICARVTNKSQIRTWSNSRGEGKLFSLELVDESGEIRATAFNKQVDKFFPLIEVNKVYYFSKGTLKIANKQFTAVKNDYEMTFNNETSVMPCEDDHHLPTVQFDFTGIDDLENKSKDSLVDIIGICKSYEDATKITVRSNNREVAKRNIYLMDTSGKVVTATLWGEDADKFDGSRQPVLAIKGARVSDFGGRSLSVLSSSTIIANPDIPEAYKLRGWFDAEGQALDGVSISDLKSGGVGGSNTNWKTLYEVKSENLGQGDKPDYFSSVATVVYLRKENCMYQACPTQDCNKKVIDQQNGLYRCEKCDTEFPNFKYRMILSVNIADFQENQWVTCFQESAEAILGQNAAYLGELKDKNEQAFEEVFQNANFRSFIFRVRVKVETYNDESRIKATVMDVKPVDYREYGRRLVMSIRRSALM
Sequence of RPA-E240K heterotrimer (P15927 whole entry, chain 2 of 3): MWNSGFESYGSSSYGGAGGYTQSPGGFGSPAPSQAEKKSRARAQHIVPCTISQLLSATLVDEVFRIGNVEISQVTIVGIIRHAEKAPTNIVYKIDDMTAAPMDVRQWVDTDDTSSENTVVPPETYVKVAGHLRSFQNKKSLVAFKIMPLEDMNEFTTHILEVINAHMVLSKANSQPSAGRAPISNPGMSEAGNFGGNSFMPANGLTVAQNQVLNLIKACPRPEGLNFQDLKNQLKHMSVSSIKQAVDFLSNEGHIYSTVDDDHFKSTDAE
Sequence of RPA-E240K heterotrimer (P35244 whole entry, chain 3 of 3): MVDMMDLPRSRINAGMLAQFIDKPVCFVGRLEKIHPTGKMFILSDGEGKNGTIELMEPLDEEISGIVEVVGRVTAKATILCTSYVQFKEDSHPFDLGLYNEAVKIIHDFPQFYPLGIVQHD

T1 sequence (P27694 whole entry, chain 1 of 3): as the sequence (P27694 whole entry E240K, chain 1 of 3) above, with K240E counted along it
T1 sequence (P15927 whole entry, chain 2 of 3): as the sequence (P15927 whole entry, chain 2 of 3) above
T1 sequence (P35244 whole entry, chain 3 of 3): as the sequence (P35244 whole entry, chain 3 of 3) above
T2 sequence (P09651 whole entry): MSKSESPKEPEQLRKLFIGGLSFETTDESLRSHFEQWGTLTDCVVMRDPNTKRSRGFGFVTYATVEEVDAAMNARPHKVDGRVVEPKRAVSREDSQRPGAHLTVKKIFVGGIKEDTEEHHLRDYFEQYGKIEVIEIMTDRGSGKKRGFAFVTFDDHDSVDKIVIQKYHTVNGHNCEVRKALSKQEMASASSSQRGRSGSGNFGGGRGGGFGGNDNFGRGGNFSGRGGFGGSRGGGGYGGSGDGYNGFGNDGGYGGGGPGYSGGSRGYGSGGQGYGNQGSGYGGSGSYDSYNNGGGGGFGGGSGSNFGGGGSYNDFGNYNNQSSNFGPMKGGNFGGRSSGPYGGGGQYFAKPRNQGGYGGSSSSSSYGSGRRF
Sequence of hnRNPA1;RPA heterotrimer (RPA1/RPA2/RPA3) (P09651 whole entry, chain 1 of 4): as the sequence (P09651 whole entry) above
Sequence of hnRNPA1;RPA heterotrimer (RPA1/RPA2/RPA3) (P27694 whole entry, chain 2 of 4): as the sequence (P27694 whole entry E240K, chain 1 of 3) above, with K240E counted along it
Sequence of hnRNPA1;RPA heterotrimer (RPA1/RPA2/RPA3) (P15927 whole entry, chain 3 of 4): as the sequence (P15927 whole entry, chain 2 of 3) above
Sequence of hnRNPA1;RPA heterotrimer (RPA1/RPA2/RPA3) (P35244 whole entry, chain 4 of 4): as the sequence (P35244 whole entry, chain 3 of 3) above
Sequence of hnRNPA1;RPA-E240K heterotrimer (P09651 whole entry, chain 1 of 4): as the sequence (P09651 whole entry) above
Sequence of hnRNPA1;RPA-E240K heterotrimer (P27694 whole entry E240K, chain 2 of 4): as the sequence (P27694 whole entry E240K, chain 1 of 3) above
Sequence of hnRNPA1;RPA-E240K heterotrimer (P15927 whole entry, chain 3 of 4): as the sequence (P15927 whole entry, chain 2 of 3) above
Sequence of hnRNPA1;RPA-E240K heterotrimer (P35244 whole entry, chain 4 of 4): as the sequence (P35244 whole entry, chain 3 of 3) above

As for TTTTTTTTTTTTTTTTTTTTTTTTTTTTTT (ssDNA) [dT30], the binding result in data set [1] was “binds”.

On to TTAGGGTTAGGGTTA (ssDNA) [h-tel-15(FRET)], for which the Kd (as a rule, the concentration at which binding is half-saturated) in data set [2] was found to be 73.5 ± 4.3 nM.

AGGGGCGGGCGCTTTAGGAAAAGGGCGGGT (structured_DNA) [BCL-2G4 1245]: the binding result in data set [1] is given as “binds”.

On to TTAGGGTTAGGGTTAGGGTTAGGGTTAGGG (structured_DNA) [h-telG4 (FRET), five telomeric repeats], for which the binding result in data set [3] is given as “binds”. The values for the equilibrium dissociation constant (Kd) in data set [4], in data set [5] and in data set [6] were 20.6 ± 3.5 nM, 75.9 ± 25.5 nM and 27.4 ± 2.7 nM, respectively.

For the molecule TGGGGAGGGTGGGGAGGGTGGGGAAGG (structured_DNA) [PU27G4], in data set [1], the binding result is reported as “binds”.

For the molecule TTAGGGTTAGGGTTAGGGTTAGGGTTAGGG (structured_DNA) [h-telG4 (MP)], the binding result in data set [7] and in data set [8] was “binds” in each case.
